Columns and labels:
[1] = molecular target: HLA-B7 (human); assay: assembly assay (HLA-B7 stabilisation)
[2] = molecular target: HLA-B35 (human); assay: assembly assay, T2-B35 cell lysate, W6/32 IP, IEF gel

Binder	C50 [1] [µM]	C50 [2] [µM]
RPPIFIRRL (modifications not checked) [C7]	0.5	
YPLHEQHQM (modifications not checked) [C24, EBNA3A458-466]		0.8
QPRAPIRPI (modifications not checked) [C6]	0.1	

Reference: patent publication EP2857035B1
